According to patent publication US12378310 (MULTITUDE, dated 2025):

B1: FOLR1-Ab20 (antibody, V domains shown)
VH: EVLLQQSGPELVKPGASVKIPCKASGYTFTDYNMDWVKQSHGKSLEWIGDINPNNGGTIYNQKFKGKATLTVDKSSSTAYMELRSLTSEDTAVYYCARKPYYGPRYFDVWGAGTTVTVSS
VL: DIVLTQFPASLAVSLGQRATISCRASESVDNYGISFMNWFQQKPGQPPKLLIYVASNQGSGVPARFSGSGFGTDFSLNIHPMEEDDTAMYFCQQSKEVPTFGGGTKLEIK
notes: Monoclonal antibody from a hybridoma clone; V regions amplified with mouse Ig primers
B2: FOLR1-Ab14 (antibody, V domains shown)
VH: B1 VH
VL: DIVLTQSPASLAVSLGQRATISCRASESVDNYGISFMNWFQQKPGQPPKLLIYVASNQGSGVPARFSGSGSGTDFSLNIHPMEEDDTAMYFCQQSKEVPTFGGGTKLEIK
notes: as for B1
B3: FOLR1-Ab23 (antibody, V domains shown)
VH: B1 VH
VL: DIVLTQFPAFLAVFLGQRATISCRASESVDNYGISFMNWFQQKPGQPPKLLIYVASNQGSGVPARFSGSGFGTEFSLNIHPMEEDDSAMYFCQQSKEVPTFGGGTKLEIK
notes: as for B1
B4: FOLR1-Ab4 (antibody, V domains shown)
VH: QIQLVQSGPELKKPGETVKISCKASIYTFTDYSIQWVKQAPGKGLKWMGWINTETGEPTYADDFKGRFAFSLESSASTAFLQINNLKNEDTATYFCARMGYYGPKIMDYWGQGTSVTVSS
VL: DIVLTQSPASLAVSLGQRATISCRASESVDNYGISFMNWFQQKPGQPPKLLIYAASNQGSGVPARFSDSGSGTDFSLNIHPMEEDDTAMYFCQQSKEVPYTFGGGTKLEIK
notes: as for B1
B5: FOLR1-Ab1 (antibody, V domains shown)
VH: QVQLQQPGAELVRPGASVKLSCKASGYTFTSYWMNWVKQRPEQGLEWIGRINPYDSETHSNQKFKDKAILTVDKSSTTAYMQLSSLTSEDSAVYYCARSGGYAWFAYWGQGTLVTVSA
VL: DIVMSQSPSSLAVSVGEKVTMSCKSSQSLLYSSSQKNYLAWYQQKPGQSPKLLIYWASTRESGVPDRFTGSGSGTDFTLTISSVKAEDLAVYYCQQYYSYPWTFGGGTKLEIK
notes: as for B1

Biological target: recombinant FOLR1 protein (rProtein) (Homo sapiens (Human), UniProt P15328 25-234, limits assumed)
Sequence (P15328 25-234 limits assumed): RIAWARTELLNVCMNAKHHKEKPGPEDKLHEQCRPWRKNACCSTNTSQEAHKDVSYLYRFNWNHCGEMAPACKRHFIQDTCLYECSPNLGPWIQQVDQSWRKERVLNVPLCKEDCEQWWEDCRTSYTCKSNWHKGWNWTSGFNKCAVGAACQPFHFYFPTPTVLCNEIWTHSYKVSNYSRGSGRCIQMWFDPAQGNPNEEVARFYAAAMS
Experiment: ELISA titration with varying concentrations of recombinant FOLR1 protein
Method: Antibodies were tested in an antigen binding assay using ELISA titration experiments.

rProtein ELISA Affinity [nM]	Binder
12.5	B1
3.12	B2
6.25	B3
0.78	B4
0.39	B5
